“Also recorded” adds a separate entry of the source. Each block holds one molecule with its values, some of them ahead of it.
Legend:
[1] = molecular target: pY1139 phosphopeptide (ErbB2) (Homo sapiens) (UniProt P04626); settings: cited from earlier work
[2] = system: breast cancer cells; settings: co-treatment with cell permeable G7-18NATE peptide, ref [19]; cited from earlier work
[3] = system: full-length Grb7; assay: Analytical ultracentrifugation: dimerisation of full-length Grb7; format: binding, human
Protocol: (§1) Figure 4 Sedimentation equilibrium analysis of the Grb7 SH2 and Grb7. (a) Absorbance at 280 nm verses radius data at sedimentation equilibrium for Grb7 SH2 at an initial loading concentration of 36 μM. The data collected at 14,000 rpm (circles), 16,600 rpm (squares), 24,300 rpm (diamonds) and 28,800 rpm (triangles) were fitted simultaneously using the nonlinear regression program. (b) Absorbance at 280 nm verses radius data at sedimentation equilibrium for Grb7 at an initial loading concentrations of 12 μM. The data collected at 10,000 rpm (circles) and 11,800 rpm (squares) were fitted simultaneously using the nonlinear regression program NONLIN [77]. The solid line represents the calculated fit to a monomer-dimer model. […]
(§2) Grb7 SH2 domain and full-length Grb7 were analysed at loading concentrations of A280 values of 0.1, 0.3 and 0.6. […] Absorption profiles were recorded at 280 and 360 nm with automatic dialysate absorption compensation. The data were recorded in 0.001-cm steps and ten scans were averaged to produce each profile. The system was deemed to be in equilibrium when profiles recorded 4 h apart were identical. The data were analysed by fitting models of association to the absorbance versus radial position distribution using the program NONLIN [48, 49]. […] The density of the buffer solution was calculated to be 1.00379 g/ml using the program […] v1.08 [74].

[4] = molecular target: the molecule itself; assay: AUC; sedimentation equilibrium, 20°C, Grb7 SH2 at an initial loading concentration of 36 μM, 14,000-28,800 rpm, 50 mM MES pH 6.6, 100 mM NaCl, 1 mM DTT; global fit to a monomer-dimer model (NONLIN); dimer to monomers
[5] = molecular target: T1, Grb7 SH2 domain (Homo sapiens, UniProt Q14451); assay: Analytical ultracentrifugation: dimerisation of Grb7 SH2 domain; format: binding
T1 construct: encoding residues 415-532 of human Grb7; GST (N, cleaved yes); made in house; host or cells: Escherichia coli BL21(DE3).pLysS
Protocol: as §1, §2

Molecule: Grb7 SH2 (from UniProt Q14451)
Kd [1]: 2.3 µM

Molecule: COc1cccc2c1C(=O)c1c(O)c3c(c(O)c1C2=O)C[C@@](O)(C(=O)CO)C[C@@H]3O[C@H]1C[C@H](N)[C@H](O)[C@H](C)O1 [Doxorubicin]
change of drug EC50 on co-treatment (in words) [2]: significant reduction of the drug EC50 value

Molecule: full-length Grb7: Full-length Grb7 (residues 1 – 532)
dimer formation (in words) [3]: in the μM range; also recorded: forms dimers in vitro with a similar affinity to that exhibited by the SH2 domain alone; also recorded: same order of magnitude as that obtained for the SH2 domain alone

dimer association compared with previous experiments at 4 °C (in words) ([5]; 20 °C versus 4 °C, ref [38]): slightly weaker association
dimer formation (in words) ([5]; analytical ultracentrifugation): in the μM range
B1: Grb7 SH2 domain (residues 415-532 of human Grb7) (domain or fragment)
chain: GSPASGTSLSAAIHRTQLWFHGRISREESQRLIGQQGLVDGLFLVRESQRNPQGFVLSLCHLQKVKHYLILPSEEEGRLYFSMDDGQTRFTDLLQLVEFHQLNRGILPCLLRHCCTRVAL
notes: first two of the 7 N-terminal residues of the construct, printed as GSPASGT; 15N-labelled (minimal medium with 15NH4Cl) for the NMR titration, unlabelled otherwise; Expected mass 13,672 g/mol; Residues 420-532 are seen in the crystal structure; also called 15N-Grb7 SH2
Kd [4]: 21.8 µM
stoichiometry N [4]: 2

Reference: paper PMC2131756, “Grb7 SH2 domain structure and interactions with a cyclic peptide inhibitor of cancer cell migration and proliferation” (BMC Structural Biology, 2007)
